Results from patent US20220267469A1 (LIPUM, published 2022).
Blank lines part the entries; values can stand above or below the binder they belong to.

Tests used:
[1] = biological target: T1, Human BSSL (bile salt-stimulated lipase), native (human, UniProt P19835 21-753); assay: SPR single cycle kinetics, scFv captured by anti-FLAG M2
T1 construct: Native full-length protein purified from human milk (Astra Hässle AB); also called hBSSL; non-biotinylated human BSSL
T1 sequence: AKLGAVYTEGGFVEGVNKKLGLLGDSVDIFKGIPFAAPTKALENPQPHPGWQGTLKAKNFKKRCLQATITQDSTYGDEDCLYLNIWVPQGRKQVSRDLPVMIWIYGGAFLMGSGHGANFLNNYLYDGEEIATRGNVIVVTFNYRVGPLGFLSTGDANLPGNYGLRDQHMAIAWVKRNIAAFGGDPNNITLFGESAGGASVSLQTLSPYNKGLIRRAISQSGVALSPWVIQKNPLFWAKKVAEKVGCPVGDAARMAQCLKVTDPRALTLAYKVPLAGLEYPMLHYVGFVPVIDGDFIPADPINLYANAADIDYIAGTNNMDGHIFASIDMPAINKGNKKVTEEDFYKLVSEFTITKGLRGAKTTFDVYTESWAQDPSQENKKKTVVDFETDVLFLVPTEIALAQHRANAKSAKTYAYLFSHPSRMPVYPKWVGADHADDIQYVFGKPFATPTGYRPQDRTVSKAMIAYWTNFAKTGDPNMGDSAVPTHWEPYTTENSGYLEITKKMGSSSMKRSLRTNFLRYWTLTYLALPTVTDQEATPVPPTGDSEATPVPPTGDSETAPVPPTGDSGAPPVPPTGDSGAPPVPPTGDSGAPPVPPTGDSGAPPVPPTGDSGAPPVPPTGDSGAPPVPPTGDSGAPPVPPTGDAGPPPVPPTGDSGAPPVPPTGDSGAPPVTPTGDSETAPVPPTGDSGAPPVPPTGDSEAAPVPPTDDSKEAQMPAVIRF

[2] = biological target: T1, Human BSSL (bile salt-stimulated …); assay: SPR kinetic screen, single concentration (estimated)
Mouse BSSL, recombinant [3] = biological target: T2, Mouse BSSL, recombinant (mouse, UniProt Q64285 21-599); assay: HTRF competition
T2 construct: Bought (R&D Systems, Cat. no 5658-CE); also called mBSSL; murine BSSL
T2 sequence: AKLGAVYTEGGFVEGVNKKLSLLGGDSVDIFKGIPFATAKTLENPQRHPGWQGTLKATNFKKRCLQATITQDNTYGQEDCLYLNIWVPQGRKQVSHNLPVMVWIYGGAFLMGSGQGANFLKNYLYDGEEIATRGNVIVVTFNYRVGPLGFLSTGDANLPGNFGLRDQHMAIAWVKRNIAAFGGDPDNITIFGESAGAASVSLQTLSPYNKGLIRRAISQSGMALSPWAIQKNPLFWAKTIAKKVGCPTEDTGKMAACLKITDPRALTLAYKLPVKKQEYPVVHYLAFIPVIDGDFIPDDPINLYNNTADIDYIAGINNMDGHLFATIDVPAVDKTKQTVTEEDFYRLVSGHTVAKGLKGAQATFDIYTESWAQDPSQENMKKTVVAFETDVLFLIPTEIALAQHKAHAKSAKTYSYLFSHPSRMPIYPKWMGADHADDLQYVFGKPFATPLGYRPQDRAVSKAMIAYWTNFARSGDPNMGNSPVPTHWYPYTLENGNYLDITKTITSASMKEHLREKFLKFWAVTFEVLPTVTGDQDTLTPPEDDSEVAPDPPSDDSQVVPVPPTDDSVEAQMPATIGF

[4] = biological target: T1, Human BSSL (bile salt-stimulated …); assay: ELISA, hBSSL directly coated at 1 µg/ml, detection HRP anti-FLAG M2, A450
Biotinylated human BSSL [5] = biological target: T3, Biotinylated human BSSL (human, UniProt P19835 21-753, Biotinylated on glycosacarides, 30-40 biotin/BSSL); assay: flow cytometry displacement assay; 1.0 ug antibody, 1 ug b-hBSSL
T3 construct: hBSSL biotinylated in house; also called b-hBSSL; human BSSL-biotin
T3 sequence: T1 sequence
In short: (§1)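 Antibody (0.5–3.0 μg per reaction) preincubated with 1 μg biotinylated human BSSL in PBS pH 7.4, 30 min at 4 °C, then with human buffy coat 30 min at 4 °C. After erythrocyte lysis/fixation, bound BSSL on CD14+ monocytes detected by labelled streptavidin via flow cytometry.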

[6] = biological target: T1, Human BSSL (bile salt-stimulated …); assay: SPR single cycle kinetics, antibody immobilised, first set of experiments
Procedure: (§2) SPR measurements were performed with a BIACORE® T200 instrument (GE Healthcare). In order to minimize avidity effects, the antibody was immobilized on the sensor surface and BSSL was injected as the analyte. Immobilization of AS20 mlgG1 was performed by amine coupling to a BIACORE® CM5 (carboxylated dextran surface) sensor chip. The chips were activated by injection of a 1:1 mixture of 0.2 M N-ethyl-N′-[(dimethylamino)peopyl]carbodiimide (EDC) and 0.05 M N-hydroxysucciminimde (NHS) with a contact time of 7 minutes. The antibody was injected for 0.2-2.8 minutes diluted to 14-50 μg/ml in 10 mM acetate-HCl pH 5.0 (set one) or pH 6.0 (set two) to reach final immobilization levels of between 560 and 830 RU. Remaining activated carboxyl groups on the sensor surface were deactivated with an injection of 1 M ethanolamine for 7 minutes.
(§3) In the second set of experiments the running buffer was 25 mM TrisHCl, pH 7.5, 150 mM NaCl. 146 mM H₃PO₄ was used as the standard regeneration solution. The kinetic studies and the non-linear regression analysis were made according to the Single Cycle Kinetics (SCK) method of the BIACORE® T200 instrument and evaluation software. The interaction between mBSSL and AS20 mlgG1 was analyzed with steady state affinity model.

Mouse BSSL, recombinant [7] = biological target: T2, Mouse BSSL, recombinant; assay: SPR steady state analysis, antibody immobilised, second set of experiments
Procedure: as §2, §3

Mouse BSSL, recombinant [8] = biological target: T2, Mouse BSSL, recombinant; assay: SPR steady state analysis
Procedure: as §2, §3

Biotinylated human BSSL [9] = biological target: T3, Biotinylated human BSSL; assay: flow cytometry displacement assay; 0.5 ug antibody, 1 ug b-hBSSL
In short: as §1

Biotinylated human BSSL [10] = biological target: T3, Biotinylated human BSSL; assay: flow cytometry displacement assay; 2.0 ug antibody, 1 ug b-hBSSL
Procedure: The 28 BSSL-specific hIgG4 antibodies and the five reference antibodies at different concentrations (ranging from 0.5 μg to 3.0 μg per reaction; see Table 10) were added to b-hBSSL (1 μg per reaction, see Table 2) in round-bottom polystyrene tubes, lx PBS (pH 7.4) was added to a final volume of 20 μl and the antibody/b-hBSSL mixtures were incubated for 30 min. at +4° C. to facilitate binding of antibodies to BSSL. Buffy coat (50 μl) was then added to each antibody/b-hBSSL mixture and incubation continued for another 30 min at +4° C. Thereafter, 2 ml of FACS lysing solution (BD Biosciences) was added and the cells were incubated for 10 min at room temperature in order to lyse erythrocytes and fix the white blood cells. The cells were then centrifuged for 5 min. at 200×g, the resulting pellets were washed by adding 2 ml of FACS buffer (1×PBS supplemented with 1% FCS and 0.1% NaN3) and centrifuged again. Finally, the supernatants were discarded and the cells were resuspended in the last drop of liquid, approximately 50 μl.
5 μl of BV421-labelled anti-human CD14 (BD Biosciences) and 5 μl of BB515-labelled streptavidin (BD Biosciences) was added to each tube and incubated for 30 min, at +4° C., protected from light. Thereafter, cells were washed twice with FACS buffer, resuspended in 500 μl FACS buffer, and run on BD LSRII flow cytometer (BD Biosciences). Finally, data were analyzed using FlowJo software (BD Biosciences).

Biotinylated human BSSL [11] = biological target: T3, Biotinylated human BSSL; assay: flow cytometry displacement assay; 1.5 ug antibody, 1 ug b-hBSSL
In short: as §1

[12] = biological target: T1, Human BSSL (bile salt-stimulated …); assay: SPR single cycle kinetics, antibody immobilised, second set of experiments
Procedure: as §2, §3

Biotinylated human BSSL [13] = biological target: T3, Biotinylated human BSSL; assay: flow cytometry displacement assay; 3.0 ug antibody, 1 ug b-hBSSL
In short: as §1

Kd [1]: 0.6 nM | koff [1]: 0.00012 s⁻¹ | kon [1]: 190000 M⁻¹ s⁻¹ | Kd [2]: 2 nM | fold lower affinity than for human BSSL (Mouse BSSL, recombinant [3]): ~100 fold | EC50 (read off the curve) [4]: ~0.02 µg/mL
B1: AS20 scFv (scFv, V domains shown)
VH: QVQLQQPGAELVKPGASVKMSCKASGYTFTSYNMHWVKQTPGQGLEWIGVIYPGNGDTSYNQKFKGKATLTADKSSSTAYMQLSSLTSEDSAVYYCARDYYGSSPLGYWGQGTTLTVSS
VL: QIVLTQSPAVMSASPGEKVTMTCSASSSISYMHWYQQKPGTSPKRWIYDTSKLASGVPARFSGSGSGTSYSLTISSMEAEDAATYYCHQRSSYPTFGGGTKLEIK

percentage reduction of b-hBSSL binding to CD14+ monocytes (Biotinylated human BSSL [5]): 66% | Kd [6]: 2.8 nM | koff [6]: 0.00027 s⁻¹ | kon [6]: 97000 M⁻¹ s⁻¹ | Kd (Mouse BSSL, recombinant [7]): 155 nM | fold weaker affinity than for human BSSL (Mouse BSSL, recombinant [8]): ~100 fold | percentage reduction of b-hBSSL binding to CD14+ monocytes (Biotinylated human BSSL [9]): 31% | percentage reduction of b-hBSSL binding to CD14+ monocytes (Biotinylated human BSSL [10]): 74% | percentage reduction of b-hBSSL binding to CD14+ monocytes (Biotinylated human BSSL [11]): 72% | Kd [12]: 1.1 nM | koff [12]: 0.00025 s⁻¹ | kon [12]: 230000 M⁻¹ s⁻¹ | percentage reduction of b-hBSSL binding to CD14+ monocytes (Biotinylated human BSSL [13]): 80%
B2: AS20 mouse IgG1 (antibody, V domains shown)
VH: B1 VH
VL: B1 VL
notes: also called AS20 mlgG1; AS20 mIgG1
